The target in one experiment is IL-18 (human) (UniProt Q14116). As to the kind of experiment: cell-based or functional assay.
Another experiment concerns the target IL-18BP (human) (UniProt O95998). Nature of the experiment: cell-based or functional assay.

We go through two substances from US20040120923A1.

IL-18BP (human), sequence (O95998 31-194): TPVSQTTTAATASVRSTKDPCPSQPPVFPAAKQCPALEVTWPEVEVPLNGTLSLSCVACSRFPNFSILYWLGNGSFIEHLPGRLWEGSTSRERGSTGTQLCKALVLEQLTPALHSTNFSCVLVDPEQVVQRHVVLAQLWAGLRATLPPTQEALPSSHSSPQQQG
IL-18 (human), sequence (Q14116 37-193 limits assumed): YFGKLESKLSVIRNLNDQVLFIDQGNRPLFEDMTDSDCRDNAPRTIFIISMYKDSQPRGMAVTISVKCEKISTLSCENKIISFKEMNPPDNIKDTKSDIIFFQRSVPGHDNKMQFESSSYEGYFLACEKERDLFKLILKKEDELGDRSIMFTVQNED

Turning to “IL-18BP (from UniProt O95998 31-194) (receptor)”, in the experiment with IL-18 (human), the activity of IL-18 (IFNγ release by NKO cells, % of IL-18 25 ng/ml plus IL-12 without IL-18BP or IL-1F7b) at 3.12 ng/ml of IL-18BP, without IL-1F7b is 59% and the activity of IL-18 (IFNγ release by NKO cells, % of IL-18 25 ng/ml plus IL-12 without IL-18BP or IL-1F7b) at 6.25 ng/ml of IL-18BP, without IL-1F7b is 76%.

For “mature IL-1F7b (N-terminus E21) (from UniProt Q9NZH6 21-218) (ligand)”, in the experiment with IL-18BP (human), the activity of IL-18 (IFNγ release by NKO cells, %) at 3.12 ng/ml of IL-18BP with mature IL-1F7b 250 ng/ml was 40%; the activity of IL-18 (IFNγ release by NKO cells, %) at 6.25 ng/ml of IL-18BP with mature IL-1F7b 250 ng/ml was 55%; the further decrease in activity of IL-18 at 3.12 ng/ml of IL-18BP with mature IL-1F7b stood at 19%; the further decrease in activity of IL-18 at 6.25 ng/ml of IL-18BP with mature IL-1F7b turned out to be 21%.
